Experimental data reported in publication PMC2756588.

T1: Bud14, P27637
T1 sequence (P27637 247-328, looked up): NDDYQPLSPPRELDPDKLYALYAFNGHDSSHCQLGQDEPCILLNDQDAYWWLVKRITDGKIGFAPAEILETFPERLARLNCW

T2: Abp1, P15891
T2 sequence (P15891 535-592, looked up): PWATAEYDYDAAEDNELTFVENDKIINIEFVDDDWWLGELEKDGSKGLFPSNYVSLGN

T3: Bzz1-2, P38822
T3 sequence (P38822 568-633, looked up): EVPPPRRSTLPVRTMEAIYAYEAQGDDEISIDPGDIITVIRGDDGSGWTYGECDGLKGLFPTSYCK

T4: Bzz1-1, P38822
T4 sequence (P38822 478-572, looked up): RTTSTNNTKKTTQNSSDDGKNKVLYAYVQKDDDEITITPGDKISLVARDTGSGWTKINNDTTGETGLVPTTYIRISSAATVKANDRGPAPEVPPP

T5: Boi2, P39969
T5 sequence (P39969 32-116, looked up): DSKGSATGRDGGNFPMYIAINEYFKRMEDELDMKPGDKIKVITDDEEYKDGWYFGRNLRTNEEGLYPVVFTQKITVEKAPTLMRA

T6: Cyk3, Q07533
T6 sequence (Q07533 1-83, looked up): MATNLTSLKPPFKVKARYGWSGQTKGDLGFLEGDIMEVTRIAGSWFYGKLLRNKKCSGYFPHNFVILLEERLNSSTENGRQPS

T7: Pin3, Q06449
T7 sequence (Q06449 53-122, looked up): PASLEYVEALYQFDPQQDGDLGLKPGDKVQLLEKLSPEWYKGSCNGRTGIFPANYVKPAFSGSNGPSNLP

T8: Hse1, P38753
T8 sequence (P38753 208-285, looked up): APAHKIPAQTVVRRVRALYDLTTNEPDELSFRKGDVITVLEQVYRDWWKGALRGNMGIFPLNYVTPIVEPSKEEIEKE

T9: Nbp2, Q12163
T9 sequence (Q12163 103-180, looked up): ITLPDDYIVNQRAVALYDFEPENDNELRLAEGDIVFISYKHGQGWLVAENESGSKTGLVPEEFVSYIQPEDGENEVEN

T10: Lsb1, P53281
T10 sequence (P53281 45-122, looked up): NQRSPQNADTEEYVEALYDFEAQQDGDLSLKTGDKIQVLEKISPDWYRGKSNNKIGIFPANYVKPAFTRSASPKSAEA

T11: Lsb3, P43603
T11 sequence (P43603 385-451, looked up): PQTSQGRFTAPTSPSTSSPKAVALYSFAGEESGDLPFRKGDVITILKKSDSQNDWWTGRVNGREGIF

T12: Myo5, Q04439
T12 sequence (Q04439 1072-1160, looked up): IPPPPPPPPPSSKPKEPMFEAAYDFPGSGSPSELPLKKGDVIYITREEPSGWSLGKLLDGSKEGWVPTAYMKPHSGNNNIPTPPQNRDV

T13: Sla1-3, P32790
T13 sequence (P32790 344-424, looked up): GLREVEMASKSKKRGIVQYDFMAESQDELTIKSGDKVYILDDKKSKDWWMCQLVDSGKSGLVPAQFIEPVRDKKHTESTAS

T14: Hof1, Q05080
T14 sequence (Q05080 590-669, looked up): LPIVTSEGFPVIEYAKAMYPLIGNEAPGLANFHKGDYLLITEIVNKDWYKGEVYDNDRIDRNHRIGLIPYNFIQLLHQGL

T15: Boi1, P38041
T15 sequence (P38041 1-86, looked up): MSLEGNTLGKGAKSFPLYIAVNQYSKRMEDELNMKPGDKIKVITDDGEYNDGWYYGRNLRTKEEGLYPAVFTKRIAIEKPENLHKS

T16: Sla1-2, P32790
T16 sequence (P32790 60-140, looked up): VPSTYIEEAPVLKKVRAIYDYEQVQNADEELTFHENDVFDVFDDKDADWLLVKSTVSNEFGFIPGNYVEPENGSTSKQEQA

T17: Fus1, P11710
T17 sequence (P11710 432-512, looked up): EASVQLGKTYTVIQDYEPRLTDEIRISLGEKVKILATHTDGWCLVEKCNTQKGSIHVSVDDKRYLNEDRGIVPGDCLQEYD

T18: Lsb4, P32793
T18 sequence (P32793 402-468, looked up): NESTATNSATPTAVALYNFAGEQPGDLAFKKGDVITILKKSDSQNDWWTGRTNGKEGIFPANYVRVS

T19: Cdc25, P04821
T19 sequence (P04821 50-136, looked up): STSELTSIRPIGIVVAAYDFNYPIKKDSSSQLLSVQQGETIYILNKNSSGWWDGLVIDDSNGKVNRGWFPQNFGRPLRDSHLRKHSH

T20: Pex13, P80667
T20 sequence (P80667 295-386, looked up): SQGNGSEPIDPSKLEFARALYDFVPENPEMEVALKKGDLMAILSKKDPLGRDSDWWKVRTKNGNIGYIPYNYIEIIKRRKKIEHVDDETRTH

T21: Bbc1, P47068
T21 sequence (P47068 1-78, looked up): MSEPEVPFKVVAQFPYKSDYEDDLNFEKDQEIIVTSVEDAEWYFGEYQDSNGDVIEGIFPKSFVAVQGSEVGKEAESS


Assays:
Assay in all cases: SPOT array
[1] = biological target: T1, Bud14, P27637; conditions: median of control spots 956
[2] = biological target: T2, Abp1, P15891; conditions: median of control spots 935
[3] = biological target: Bem1-1, P29366; conditions: median of control spots 4282
Chain of Bem1-1, P29366 (P29366 55-141): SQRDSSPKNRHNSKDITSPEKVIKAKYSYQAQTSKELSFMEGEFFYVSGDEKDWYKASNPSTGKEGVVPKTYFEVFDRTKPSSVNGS

[4] = biological target: GST; conditions: median of control spots 978
[5] = biological target: T3, Bzz1-2, P38822; conditions: median of control spots 4538
[6] = biological target: Rvs167, P39743; conditions: median of control spots 2707
Chain of Rvs167, P39743 (P39743 419-482): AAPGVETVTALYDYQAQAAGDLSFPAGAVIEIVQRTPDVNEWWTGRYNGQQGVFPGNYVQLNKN

[7] = biological target: T4, Bzz1-1, P38822; conditions: median of control spots 4446
[8] = biological target: T5, Boi2, P39969; conditions: median of control spots 1161
[9] = biological target: T6, Cyk3, Q07533; conditions: median of control spots 1451
[10] = biological target: T7, Pin3, Q06449; conditions: median of control spots 2171
[11] = biological target: T8, Hse1, P38753; conditions: median of control spots 1727
[12] = biological target: T9, Nbp2, Q12163; conditions: median of control spots 357
[13] = biological target: T10, Lsb1, P53281; conditions: median of control spots 388
[14] = biological target: T11, Lsb3, P43603; conditions: median of control spots 406
[15] = biological target: T12, Myo5, Q04439; conditions: median of control spots 471
[16] = biological target: Sho1, P40073; conditions: median of control spots 1148
Chain of Sho1, P40073 (P40073 287-367): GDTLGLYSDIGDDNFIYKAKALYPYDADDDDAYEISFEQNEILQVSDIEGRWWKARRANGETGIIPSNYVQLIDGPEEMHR

[17] = biological target: Bem1-2, P29366; conditions: median of control spots 4347
Chain of Bem1-2, P29366 (P29366 139-227): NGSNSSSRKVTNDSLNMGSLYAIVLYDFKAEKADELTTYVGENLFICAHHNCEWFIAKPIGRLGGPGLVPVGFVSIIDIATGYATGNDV

[18] = biological target: T13, Sla1-3, P32790; conditions: median of control spots 5475
[19] = biological target: T14, Hof1, Q05080; conditions: median of control spots 4086
[20] = biological target: T15, Boi1, P38041; conditions: median of control spots 1162
[21] = biological target: T16, Sla1-2, P32790; conditions: median of control spots 712
[22] = biological target: T17, Fus1, P11710; conditions: median of control spots 1200
[23] = biological target: T18, Lsb4, P32793; conditions: median of control spots 397
[24] = biological target: T19, Cdc25, P04821; conditions: median of control spots 969
[25] = biological target: T20, Pex13, P80667; conditions: median of control spots 1341
[26] = biological target: T21, Bbc1, P47068; conditions: median of control spots 796
[27] = biological target: Myo3, P36006; conditions: median of control spots 468

| SPOT intensity [1] | SPOT intensity [2] | SPOT intensity [3] | SPOT intensity [4] | SPOT intensity [5] | SPOT intensity [6] | SPOT intensity [7] | SPOT intensity [8] | SPOT intensity [9] | SPOT intensity [10] | SPOT intensity [11] | SPOT intensity [12] | SPOT intensity [13] | SPOT intensity [14] | SPOT intensity [15] | SPOT intensity [16] | SPOT intensity [17] | SPOT intensity [18] | SPOT intensity [19] | SPOT intensity [20] | Binder | further results |
| --- | --- | --- | --- | --- | --- | --- | --- | --- | --- | --- | --- | --- | --- | --- | --- | --- | --- | --- | --- | --- | --- |
| 19 | 18 | 0 | 2 | 0 | 0 | 0 | 0 | 3 | 4 | 4 | 4 | 576 | 0 | 1 | 38 | 1 | 2 | 5 | 3 | NQARKPFLLPATELS | SPOT intensity [21]: 1; SPOT intensity [22]: 0; SPOT intensity [23]: 0; SPOT intensity [24]: 16; SPOT intensity [25]: 0; SPOT intensity [26]: 30; SPOT intensity [27]: 1 |
| 11 | 67 | 0 | 1 | 0 | 0 | 1 | 0 | 1 | 53 | 16 | 3 | 355 | 5 | 6 | 19 | 5 | 44 | 8 | 1 | KWVRRPKLMTPLTFS | SPOT intensity [21]: 0; SPOT intensity [22]: 54; SPOT intensity [23]: 2; SPOT intensity [24]: 0; SPOT intensity [25]: 6; SPOT intensity [26]: 38; SPOT intensity [27]: 6 |

More lines, now with the values behind:

| Binder | SPOT intensity [1] | SPOT intensity [2] | SPOT intensity [3] | SPOT intensity [4] | SPOT intensity [5] | SPOT intensity [6] | SPOT intensity [7] | SPOT intensity [8] | SPOT intensity [9] | SPOT intensity [10] | SPOT intensity [11] | SPOT intensity [12] | SPOT intensity [13] | SPOT intensity [14] | SPOT intensity [15] | SPOT intensity [16] | SPOT intensity [17] | SPOT intensity [18] | SPOT intensity [19] | SPOT intensity [20] | further results |
| --- | --- | --- | --- | --- | --- | --- | --- | --- | --- | --- | --- | --- | --- | --- | --- | --- | --- | --- | --- | --- | --- |
| YSRKKLPVVLSKMTL | 3 | 64 | 1 | 2 | 0 | 2 | 1 | 1 | 1 | 20 | 1 | 0 | 888 | 1 | 4 | 47 | 0 | 12 | 2 | 0 | SPOT intensity [21]: 4; SPOT intensity [22]: 2; SPOT intensity [23]: 0; SPOT intensity [24]: 0; SPOT intensity [25]: 8; SPOT intensity [26]: 18; SPOT intensity [27]: 1 |
| YYNRQELALPKRMSS | 3 | 14 | 0 | 3 | 4 | 21 | 0 | 1 | 3 | 327 | 2 | 1 | 819 | 24 | 5 | 9 | 0 | 7 | 1 | 1 | SPOT intensity [21]: 2; SPOT intensity [22]: 6; SPOT intensity [23]: 45; SPOT intensity [24]: 0; SPOT intensity [25]: 16; SPOT intensity [26]: 8; SPOT intensity [27]: 11 |
| SRQAIPPPVPNRPGG | 0 | 24 | 1 | 0 | 0 | 833 | 3 | 0 | 1 | 55 | 22 | 1 | 1590 | 658 | 21 | 14 | 3 | 3 | 1 | 0 | SPOT intensity [21]: 0; SPOT intensity [22]: 1; SPOT intensity [23]: 373; SPOT intensity [24]: 0; SPOT intensity [25]: 133; SPOT intensity [26]: 247; SPOT intensity [27]: 63 |
| NRPAIRIPSLKKPAL | 13 | 74 | 1 | 1 | 0 | 0 | 3 | 0 | 0 | 9 | 20 | 2 | 467 | 0 | 2 | 39 | 12 | 14 | 13 | 1 | SPOT intensity [21]: 0; SPOT intensity [22]: 1; SPOT intensity [23]: 6; SPOT intensity [24]: 5; SPOT intensity [25]: 5; SPOT intensity [26]: 40; SPOT intensity [27]: 3 |
